# Test results as given in patent US5767072A (priority 1993, dated 1998).
# Where no end group is shown, it is not given here.
# Assays:
# [1] = tested on: HIV infected cells; assay type: cell-based
# [2] = molecular target: T1, rgp120 (Human immunodeficiency virus type 1 group M subtype B, UniProt P03375); assay: inhibition of the binding of rCD4-HRP to rgp120 by rCD4 and CD4 peptides; design: species or system HIV-1; conditions: even at concentrations of 50 μM
# Method: The relative affinity of the CD4-peptides-OVA for rgp120 vs rCD4 was calculated by dividing the […].
# [3] = molecular target: gp120 (Human immunodeficiency virus type 1 group M subtype B, UniProt P03375); assay type: binding, HIV-1
# [4] = molecular target: T1, rgp120; assay: direct ELISA binding of peptide-OVA to rgp120; design: species or system HIV-1
# Method: CD4-peptide (41-84)-OVA (.circle-solid.); CD4-peptide (40-57)-OVA (.smallcircle.); CD4-peptide (81-92)-OVA (.box-solid.). Control peptide-OVA and OVA (.box-solid.).
# Wells coated with rgp120 and blocked as described above were treated with various concentrations of peptide-OVA or OVA (control) in 100 μl and the plate was incubated for 2 hr at 25° C. The plates were washed and then incubated with rabbit IgG anti-OVA coupled to HRP (5 μl/ml) for 2 hr at 25° C. The binding of the labeled antibody was detected as described above. Linear regression curves were generated by plotting the absorption vs the concentration of peptide-OVA.
molecule,measurement,setting,value
CCN(CC)CCCC(C)Nc1ccnc2cc(Cl)ccc12 (centres unmarked) [chloroquine],anticellular activity against HIV infected cells,[1],significant anticellular activity
TYICEVEDGKEE [CD4-peptide (81-92)],inhibition of the binding of rCD4 to gp120 by free peptides,[2],did not inhibit the binding of rCD4 to gp120
Gln-Gly-Ser-Phe-Leu-Thr-Lys-Gly-Pro-Ser-Lys-Leu-Asn-Asp-Arg-^3 H-Ala-Asp-Ser [CD4-peptide (40-57)],inhibition of the binding of rCD4 to gp120 by free peptides,[2],did not inhibit the binding of rCD4 to gp120
GSFLTKGPSKLNDRADS [peptide 41-57],inhibition of the binding of CD4 to gp120,[3],unable to inhibit the binding of CD4 to gp120
"OVA: ovalbumin, carrier protein control (protein, UniProt P01012 2-386, looked up) Ovalbumin: GSIGAASMEFCFDVFKELKVHHANENIFYCPIAIMSALAMVYLGAKDSTRTQINKVVRFDKLPGFGDSIEAQCGTSVNVHSSLRDILNQITKPNDVYSFSLASRLYAEERYPILPEYLQCVKELYRGGLEPINFQTAADQARELINSWVESQTNGIIRNVLQPSSVDSQTAMVLVNAIVFKGLWEKAFKDEDTQAMPFRVTEQESKPVQMMYQIGLFRVASMASEKMKILELPFASGTMSMLVLLPDEVSGLEQLESIINFEKLTEWTSSNVMEERKIKVYLPRMKMEEKYNLTSVLMAMGITDVFSSSANLSGISSAESLKISQAVHAAHAEINEAGREVVGSAEAGVDAASVSEEFRADHPFLFCIKHIATNAVLFFGRCVSP",binding to gp120 in direct ELISA,[4],did not bind gp120
